Data on one substance can be found in patent publication US20230295335A1.

In assay [1] the target is neonatal Fc receptor (FcRn), His-tagged (SinoBiological, cat. no. CT009-H08H-B) (UniProt P55899). Kind of assay: SPR kinetics assay at pH 6.0; His-tagged FcRn captured on anti-His chip, antibody 0-100 nM; mean of three experiments.
The target is the same in assay [2]. The assay is described as follows: SPR kinetics assay at pH 6.0; His-tagged FcRn captured on anti-His chip, antibody 0-100 nM.

pKd: −log10 of the molar value.

Sequence of neonatal Fc receptor (FcRn), His-tagged (SinoBiological, cat. no. CT009-H08H-B) (P55899 24-297 limits assumed, form in doubt): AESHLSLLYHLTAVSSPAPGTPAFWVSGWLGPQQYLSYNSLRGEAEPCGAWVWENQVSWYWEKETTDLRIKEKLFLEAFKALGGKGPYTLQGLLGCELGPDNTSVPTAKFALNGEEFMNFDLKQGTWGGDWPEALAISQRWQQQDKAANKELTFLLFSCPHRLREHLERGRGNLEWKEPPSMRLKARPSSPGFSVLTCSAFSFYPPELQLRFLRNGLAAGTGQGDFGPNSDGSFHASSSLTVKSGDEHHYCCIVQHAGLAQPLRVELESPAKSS

As a reminder, the pKd is −log10 of the Kd, conventionally taken in molar units. A high value points to a low Kd. The term koff denotes the first-order rate constant of dissociation. Low readings indicate slow dissociation, high ones fast dissociation. A word on the kon: it is the rate constant with which the complex forms. The substance IgG1-b12 (antibody) gave a pKd in assay [1] of 7.54. In assay [2], this substance displayed an off-rate (koff) of 0.0322 s⁻¹ and an on-rate (kon) of 1.1e+06 M⁻¹ s⁻¹.
